According to patent US20110243928A1 (published 2011):
*: point of attachment. Biotin = O=C1N[C@H]2[C@H](CS[C@H]2CCCCC(=O)*)N1

B1: monoclonal antibody 6A1 (antibody, IgG1, V domains shown)
VH: EIQLQQSVAELVRPGASVRLSCTASGFYIKDTYMHWVIQRPEQGLEWIGTIDPANGNTKYVPKFQGKATITADTSSNTAYLRLSSLTSEDTAIYYCARSIYDDYHYDDYYAMDYWGQGTSVTVSS
VL: DVLMTQTPLSLPVSLGDQASISCRSSQNIVHINGNTYLEWYLQKPGQSPKLLIYKISDRFSGVPDRFSGSGSGTDFTLKISRVEAEDLGVYYCFQGSHVPWTFGGGTKLEIK
notes: also called 6A1 parental mAb; parental mouse mAb 6A1
B2: L1+A1 (antibody, human IgG1, kappa, V domains shown)
VH: QVQLVQSGAEVKKPGSSVKVSCKASGFYIKDTYMHWVRQAPGQGLEWMGTIDPANGNTKYVPKFQGRVTITADESTSTAYMELSSLRSEDTAVYYCARSIYDDYHYDDYYAMDYWGQGTLVTVSS
VL: DIVMTQSPLSLPVTPGEPASISCRSSQNIVHINGNTYLEWYLQKPGQSPRLLIYKISDRFSGVPDRFSGSGSGTDFTLKISRVEADDVGIYYCFQGSHVPWTFGQGTKLEIKR
notes: Humanised 6A1, VH construct A1 and VL construct L1, human gamma1 wild type / kappa constant regions; also called A1L1; humanised anti-IL-13 mAb L1+A1

Columns and labels:
16 mer peptide 30 = biological target: T1, 16 mer peptide 30 (N-terminal biotin; C-terminal amide); assay: 16 mer peptide ELISA
T1 peptide: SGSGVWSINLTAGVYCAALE
Excerpt: (§1) Biotinylated 16 mer peptides offset by 4 were synthesised to map the location of the B cell epitope recognised by mAb 6A1 on both human and cynomolgus IL-13. An ELISA method was used to detect binding of immobilised biotinylated peptide to the parental mAb 6A1.

16 mer peptide 44 = biological target: T2, 16 mer peptide 44 (cynomolgus, N-terminal biotin; C-terminal free acid); assay: 16 mer peptide ELISA
T2 construct: also called 44 (Control)
T2 peptide: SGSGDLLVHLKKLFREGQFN
Excerpt: as §1

[1] = biological target: T3, E. coli-expressed recombinant human IL-4 (human, UniProt P05112 25-153); assay: human IL-4 binding sandwich ELISA
T3 sequence (looked up): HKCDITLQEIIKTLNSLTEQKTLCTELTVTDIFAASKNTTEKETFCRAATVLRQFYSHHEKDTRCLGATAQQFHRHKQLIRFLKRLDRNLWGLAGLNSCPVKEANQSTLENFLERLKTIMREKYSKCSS

fine mapping peptide 423 = biological target: T4, fine mapping peptide 423 (SMILES N=C(N)NCCC[C@H](NC(=O)[C@H](Cc1ccccc1)NC(=O)CNC(=O)[C@H](CO)NC(=O)CNC(=O)[C@H](CO)NC(=O)CCCC[C@@H]1SC[C@@H]2NC(=O)N[C@@H]21)C(=O)N[C@@H](CCC(=O)O)C(=O)NCC(N)=O); assay: fine mapping peptide ELISA
T4 peptide: Biotin-SGSGFREG-NH2
Protocol: (§2) A binding epitope for mAb 6A1 was determined using a peptide set based around […] for binding to human IL-13 and […] for binding to cynomolgus IL-13. Peptides were ordered with 1 amino acid sequentially removed from either the N or C-terminus of these parental peptide sequences (i.e. […] or […]), in order to define the precise linear binding epitope for mAb 6A1.
(§3) An ELISA method was used to detect binding of immobilised biotinylated peptide to the parental mAb 6A1.

fine mapping peptide 421 = biological target: T5, fine mapping peptide 421 (SMILES …); assay: fine mapping peptide ELISA
T5 peptide: Biotin-SGSGKLFREG-NH2
Protocol: as §2, §3

[2] = biological target: T6, 16mer biotinylated human IL-13 peptide number 24 (human, N-terminal biotin; C-terminal amide); assay: BIAcore analysis 3, antibody over immobilised biotinylated peptide 24
T6 construct: format Biotin-SGSG-PEPTIDE-amide; also called Peptide 24
T6 peptide: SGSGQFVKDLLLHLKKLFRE
Protocol: Completed for the 16mer biotinylated human IL-13 peptide number 24 (identified as the linear binding epitope for parental mAb 6A1, see section 6.7). Note that the absolute KD values obtained for binding to peptide ligands are often quite different to those seen for binding to whole protein targets.
The kinetics analysis was performed on a Biacore 3000 machine using direct binding of antibody to immobilised IL-13 peptide. Briefly, IL-13 biotinylated peptide was captured using a Biacore SA (strepavidin) Biosensor chip. The antibodies were then passed over the sensor surface at various concentrations. The subsequent binding curves were analysed with Biacore analysis software BIAeval 4.1 to determine kinetics. The experiment was carried out using Biacore HBS-EP buffer

Row | Binder | absorbance at 490 nm (16 mer peptide 30) [A490] | absorbance at 490 nm (16 mer peptide 44) [A490] | binding result [1] | absorbance at 490 nm (fine mapping peptide 423) [A490] | absorbance at 490 nm (fine mapping peptide 421) [A490] | fold reduction in affinity against chimaeric 6A1 [2] [fold]
1 | B1 | 0.062 | 2.23 | no binding | 0.052 | 0.059 | 
2 | B2 |  |  |  |  |  | ~3
